Data from article PMC3880548 (Biochemistry, 2012).

Target: the molecule itself
Assay: SEC

Row | Protein | stoichiometry N
1 | Shewanella oneidensis cytochrome c peroxidase, wild type (enzyme) AEPIEVITPAKITEPEKVELGKMLFFEPRLSKSGFISCNSCHNLSTGGVDALPTSIGHHWQEGPINSPTVLNADFMLAQFWDGRASNLKEQAAGPIANPKEMGFTHELATETIASMPAYRARFAKVYGDEKVDIDRLTDAIAAFEKTLVTPNSPFDQYLLGKQDAISGDAKAGYQLFKDKGCVSCHNGPAVGGTMFMKMGLIKPFHTNNPAEGRKGVTGKDADKFVFKVPTLRNIELTYPYFHDGSVWTLEEAVNTMADIQLGQKLTEKETKEMVAFLNSLTGEQPQISLPILPPSNKETPRPVPFATGAK | 2
2 | Shewanella oneidensis cytochrome c peroxidase E321K charge reversal mutant (enzyme) AEPIEVITPAKITEPEKVELGKMLFFEPRLSKSGFISCNSCHNLSTGGVDALPTSIGHHWQEGPINSPTVLNADFMLAQFWDGRASNLKEQAAGPIANPKEMGFTHELATETIASMPAYRARFAKVYGDEKVDIDRLTDAIAAFEKTLVTPNSPFDQYLLGKQDAISGDAKAGYQLFKDKGCVSCHNGPAVGGTMFMKMGLIKPFHTNNPAEGRKGVTGKDADKFVFKVPTLRNIELTYPYFHDGSVWTLEEAVNTMADIQLGQKLTEKETKEMVAFLNSLTGEQPQISLPILPPSNKKTPRPVPFATGAK | 2
